Measured values: patent US20090214565A1 (BAYLOR RESEARCH INSTITUTE, published 2009)

What was measured:
[1] = biological target: T1, IFN-α D (human, UniProt P0DY56 24-189); assay: ELISA, IFN subtype coated
T1 construct: Bought from PBL; Differs from IFN-α1 by Val at 114 as printed; also called IFNα protein subtype D [Val114]; (gene 1); D (1)
Procedure: Solid-phase binding of all 15 IFNα subtypes was evaluated for screening of MAb specificity by ELISA assay. Briefly, 50 μl/well of 1 μg/ml of a recombinant IFNα protein subtype were coated overnight at 4° C. on ELISA plates (NUNC MaxiSorp™) plates. Coated plates were blocked with PBS+1% BSA and incubated with 50 μl of 25 ng ACO candidate MAb in PBS for 1 hour at 37° C. The assays were developed by incubation with 50 μl/well of an HRP conjugated goat anti-mouse-IgG (Jackson ImmunoResearch) at room temperature for 30 minutes followed by incubation with 100 μl/well of TMB substrate solution (Zymed) for 15 minutes. The reaction was stopped with 100 μl/well of 1 N HCl and read at OD₄₅₀ on an ELISA plate reader.

[2] = biological target: T2, IFN-α C (human, UniProt P01566 24-189); assay: cell-based or functional assay
[3] = biological target: T3, IFN-α K (human, UniProt P05013 24-189); assay: cell-based or functional assay
T3 sequence (P05013 24-189): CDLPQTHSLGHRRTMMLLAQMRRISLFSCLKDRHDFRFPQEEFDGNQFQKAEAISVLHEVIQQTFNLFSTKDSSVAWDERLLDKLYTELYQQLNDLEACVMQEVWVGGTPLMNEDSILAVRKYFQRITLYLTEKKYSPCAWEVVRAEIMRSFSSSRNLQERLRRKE

[4] = biological target: T4, IFN-α F (human, UniProt P01568 24-189); assay: cell-based or functional assay
T4 sequence (P01568 24-189): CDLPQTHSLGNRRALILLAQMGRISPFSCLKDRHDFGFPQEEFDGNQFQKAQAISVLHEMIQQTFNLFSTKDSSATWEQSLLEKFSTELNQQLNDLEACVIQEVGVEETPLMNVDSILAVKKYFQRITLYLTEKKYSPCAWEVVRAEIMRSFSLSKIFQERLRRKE

[5] = biological target: T5, IFN-α H2 (human, UniProt P01570 24-189); assay: cell-based or functional assay
T5 sequence (P01570 24-189): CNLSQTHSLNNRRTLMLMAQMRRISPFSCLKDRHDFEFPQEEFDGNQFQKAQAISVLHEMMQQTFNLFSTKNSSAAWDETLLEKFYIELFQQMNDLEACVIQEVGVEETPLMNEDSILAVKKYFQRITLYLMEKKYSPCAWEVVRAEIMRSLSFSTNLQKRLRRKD

[6] = biological target: IFN-β (human, UniProt P01574 22-187); assay: cell-based or functional assay
Chain of IFN-β (P01574 22-187 limits assumed): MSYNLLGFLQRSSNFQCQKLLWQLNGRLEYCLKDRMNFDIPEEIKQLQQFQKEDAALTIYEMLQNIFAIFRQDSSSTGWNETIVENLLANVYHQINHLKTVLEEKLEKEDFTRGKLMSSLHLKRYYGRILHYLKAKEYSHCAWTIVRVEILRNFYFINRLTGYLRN

[7] = biological target: T6, IFN-α J1 (human, UniProt P01567 24-189); assay: cell-based or functional assay
T6 sequence (P01567 24-189 limits assumed): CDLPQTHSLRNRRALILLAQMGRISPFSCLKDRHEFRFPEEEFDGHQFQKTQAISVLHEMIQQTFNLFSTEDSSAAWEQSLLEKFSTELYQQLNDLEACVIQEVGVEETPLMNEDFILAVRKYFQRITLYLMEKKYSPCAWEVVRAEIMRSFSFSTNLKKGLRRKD

[8] = biological target: T7, IFN-α I (human, UniProt P01571 24-189); assay: cell-based or functional assay
T7 sequence (P01571 24-189): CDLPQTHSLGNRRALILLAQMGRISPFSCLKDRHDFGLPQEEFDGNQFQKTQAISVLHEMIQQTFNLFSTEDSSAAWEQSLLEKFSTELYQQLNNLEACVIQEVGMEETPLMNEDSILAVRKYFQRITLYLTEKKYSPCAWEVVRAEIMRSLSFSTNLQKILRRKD

[9] = biological target: T8, IFN-α WA (human, UniProt P05015 24-189); assay: cell-based or functional assay
T8 sequence (P05015 24-189): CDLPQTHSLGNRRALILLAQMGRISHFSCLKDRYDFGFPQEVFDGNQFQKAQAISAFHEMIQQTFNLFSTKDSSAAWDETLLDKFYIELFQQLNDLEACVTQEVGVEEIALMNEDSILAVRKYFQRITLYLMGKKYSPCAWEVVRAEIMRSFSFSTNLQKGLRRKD

[10] = biological target: T9, IFN-α4a (human, UniProt P05014 24-189, limits assumed); assay: cell-based or functional assay
T9 sequence (P05014 24-189 limits assumed): as the sequence (P01571 24-189) above, with P26H, L38F, Q40E, N46H, T51A, N95D, M106V, I161R counted along it

[11] = biological target: T1, IFN-α D; assay: cell-based or functional assay
[12] = biological target: T10, IFN-α G (human, UniProt P01569 24-189); assay: cell-based or functional assay
T10 sequence (P01569 24-189): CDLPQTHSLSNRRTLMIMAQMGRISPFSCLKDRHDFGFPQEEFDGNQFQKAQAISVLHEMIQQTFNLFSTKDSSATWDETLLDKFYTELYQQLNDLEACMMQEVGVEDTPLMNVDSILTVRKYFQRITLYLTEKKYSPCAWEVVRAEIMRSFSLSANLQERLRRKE

[13] = biological target: T2, IFN-α C; assay: cell-based or functional assay; remark: listed apart in the source
[14] = biological target: T3, IFN-α K; assay: cell-based or functional assay; remark: listed apart in the source
[15] = biological target: T4, IFN-α F; assay: cell-based or functional assay; remark: listed apart in the source
[16] = biological target: T5, IFN-α H2; assay: cell-based or functional assay; remark: listed apart in the source
[17] = biological target: T6, IFN-α J1; assay: cell-based or functional assay; remark: listed apart in the source
[18] = biological target: T7, IFN-α I; assay: cell-based or functional assay; remark: listed apart in the source
[19] = biological target: T8, IFN-α WA; assay: cell-based or functional assay; remark: listed apart in the source
[20] = biological target: T9, IFN-α4a; assay: cell-based or functional assay; remark: listed apart in the source
[21] = biological target: T1, IFN-α D; assay: cell-based or functional assay; remark: listed apart in the source
[22] = biological target: T10, IFN-α G; assay: cell-based or functional assay; remark: listed apart in the source
[23] = biological target: T2, IFN-α C; assay: cell-based or functional assay; remark: listed apart in the source
[24] = biological target: T3, IFN-α K; assay: cell-based or functional assay; remark: listed apart in the source
[25] = biological target: T4, IFN-α F; assay: cell-based or functional assay; remark: listed apart in the source
[26] = biological target: T5, IFN-α H2; assay: cell-based or functional assay; remark: listed apart in the source
[27] = biological target: T6, IFN-α J1; assay: cell-based or functional assay; remark: listed apart in the source
[28] = biological target: T7, IFN-α I; assay: cell-based or functional assay; remark: listed apart in the source
[29] = biological target: T8, IFN-α WA; assay: cell-based or functional assay; remark: listed apart in the source
[30] = biological target: T9, IFN-α4a; assay: cell-based or functional assay; remark: listed apart in the source
[31] = biological target: T10, IFN-α G; assay: cell-based or functional assay; remark: listed apart in the source
[32] = biological target: leukocyte IFN (Sigma); assay: cell-based or functional assay

T1 sequence (P0DY56 entry or part of it limits assumed): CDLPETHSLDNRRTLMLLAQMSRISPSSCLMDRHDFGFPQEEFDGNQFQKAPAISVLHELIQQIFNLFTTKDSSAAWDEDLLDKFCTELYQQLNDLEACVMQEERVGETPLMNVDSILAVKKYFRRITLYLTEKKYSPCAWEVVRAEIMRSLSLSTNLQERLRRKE
T2 sequence (P01566 24-189): as the sequence (P01571 24-189) above, with A19G, G37R, L38I, T51A, N95D, M106V, T132I, K134R, I161R counted along it

B1: ACO-1 (antibody, V domains shown)
VH: QVQLQQPGAELVKPGASVKLSCKASGYTFTNYWMHWVKQRPGQGLEWIGEINPSHGRTIYNENFKSKATLTVDKSSITAFMQLSSLTSEDSAVYFCARGGLGPAWFAYWGQGTLVTVSA
VL: QIVLTQSPAIMSASPGEKVTLTCSAGSSVDSSYLYWYQQKPGSSPKLWIYSTSNLASGVPARFSGSGSGTSYSLTISSMEAEDAASYFCHQWSSYPFTFGSGTKLEIKR
notes: also called ACO-1 monoclonal antibody; hybridoma ATCC PTA-6557
[1]
  binding result: no binding (tested: <2-fold over matched controls; 25 ng MAb)
[2]
  percentage neutralization, RG assay: 91.4%
[3]
  percentage neutralization, RG assay: 77.9%
[4]
  percentage neutralization, RG assay: 83.7%
[5]
  percentage neutralization, RG assay: 77.5%
[6]
  percentage neutralization, RG assay: 9%
[7]
  percentage neutralization, RG assay: 83.9%
[8]
  percentage neutralization, RG assay: 87.1%
[9]
  percentage neutralization, RG assay: 86.9%
[10]
  percentage neutralization, RG assay: 67.8%
[11]
  percentage neutralization, RG assay: 12.5%
[12]
  percentage neutralization, RG assay: 92.7%
[13]
  percentage neutralization, CPE assay: 99.4%
[14]
  percentage neutralization, CPE assay: 98.3%
[15]
  percentage neutralization, CPE assay: 96.6%
[16]
  percentage neutralization, CPE assay: 95.9%
[17]
  percentage neutralization, CPE assay: 98.1%
[18]
  percentage neutralization, CPE assay: 98%
[19]
  percentage neutralization, CPE assay: 88.7%
[20]
  percentage neutralization, CPE assay: 82.9%
[21]
  percentage neutralization, CPE assay: 33%
[22]
  percentage neutralization, CPE assay: 99%
[23]
  EC50 of neutralization, RG bioassay: 0.00056 µg/mL
[24]
  EC50 of neutralization, RG bioassay: 0.235 µg/mL
[25]
  EC50 of neutralization, RG bioassay: 0.146 µg/mL
[26]
  EC50 of neutralization, RG bioassay: 0.153 µg/mL
[27]
  EC50 of neutralization, RG bioassay: 0.168 µg/mL
[28]
  EC50 of neutralization, RG bioassay: 0.0135 µg/mL
[29]
  EC50 of neutralization, RG bioassay: 0.0848 µg/mL
[30]
  EC50 of neutralization, RG bioassay: 0.00211 µg/mL
[31]
  EC50 of neutralization, RG bioassay: 0.0271 µg/mL
[32]
  neutralization of 600 pg leukocyte IFN, RG bioassay: > 50%
